According to patent US20230242616A1, “CHEMOKINE-SELECTIVE CXCR4 ECTODOMAIN-DERIVED (POLY)PEPTIDE” (Ludwig-Maximilians-Universität München, priority 2020, published 2023):

What was measured:
[1] = biological target: human macrophage migration-inhibitory factor (MIF) (human) (UniProt P14174); test: fluorescence spectroscopic titration, apparent Kd; Fluos-ngm titrated with MIF
[2] = biological target: human macrophage migration-inhibitory factor (MIF) (human) (UniProt P14174); test: cell-based or functional assay
[3] = biological target: human macrophage migration-inhibitory factor (MIF) (human) (UniProt P14174); test: fluorescence spectroscopic titration
[4] = biological target: human macrophage migration-inhibitory factor (MIF) (human) (UniProt P14174); test: fluorescence spectroscopic titration of Alexa-MIF with increasing ngm-L5 [panel D]
[5] = biological target: human macrophage migration-inhibitory factor (MIF) (human) (UniProt P14174); test: fluorescence spectroscopic titration, apparent Kd; Alexa-488-MIF titrated with ngm
[6] = biological target: msR4M-L1 (CXCR4-ECL1[97-110]-6-Ahx-12-Ado-ECL2[182-196]) (human); test: fluorescence spectroscopic titration, self-assembly; Fluos-msR4M-L1 titrated with unlabelled msR4M-L1
CXCL12 (human) = CXCL12 (human) (UniProt P48061); test: fluorescence spectroscopic titration, apparent KD; Fluos-labelled peptide (5 nM) titrated with CXCL12
CXCL12 (human), sequence (P48061 22-89 limits assumed): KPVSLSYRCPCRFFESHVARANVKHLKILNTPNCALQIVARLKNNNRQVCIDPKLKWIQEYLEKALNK

human macrophage migration-inhibitory factor (MIF) (human), sequence (P14174 2-115 limits assumed): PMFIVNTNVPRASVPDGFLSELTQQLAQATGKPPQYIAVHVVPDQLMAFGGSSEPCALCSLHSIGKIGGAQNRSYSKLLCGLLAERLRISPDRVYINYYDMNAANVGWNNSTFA

| Substance | Kd [1] [nM] | Atherogenic inhibitory activity (Dil-LDL uptake) (% of full-length msR4M-L1) [2] | IC50 of inhibition of MIF-triggered Dil-oxLDL uptake (foam cell assay) [2] [nM] | Kd [3] [nM] | EC50 (read off the curve) [4] [nM] | Kd [5] [nM] | Kd [6] [nM] | Kd (CXCL12 (human)) [µM] |
| --- | --- | --- | --- | --- | --- | --- | --- | --- |
| msR4M-L5 ([ECL1(102-110)]-O1pen-O1pen-[ECL2(187-195)]) (designed binder) | 14.3 | 30 | 69.7 | 14 | 40 | 41.8 | – | – |
| msR4M-L4 ([ECL1(102-110)]-8 Aoc-[ECL2(187-195)]) (designed binder) | 11.9 | 80 | – | 12 | – | 43.2 | – | – |
| msR4M-L1 (CXCR4-ECL1[97-110]-6-Ahx-12-Ado-ECL2[182-196]) (designed binder) | – | – | – | – | – | – | 142 | > 5 |
| msR4M-L3 ([ECL1(102-110)]-6 Ahx-12 Ado-[ECL2(187-195)]) (designed binder) | 44.4 | 80 | – | 14 | – | 11.7 | – | – |
